The text below walks through data of the supplement of paper PMC9112550, “Optimization of the antimicrobial peptide Bac7 by deep mutational scanning” (BMC Biology, 2022).

The test system of this data set is Escherichia coli TOP10. Briefly: shrunken log2 fold change of peptide-encoding DNA abundance (4.5 h post-induction vs induction); higher = less antimicrobial activity (less host growth inhibition). The settings on record: time post-induction: 4.5 h; library: site-saturation at positions 5, 18, 19, 20.
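Note: peptides expressed intracellularly from a pBAD plasmid library in pooled LB shake-flask culture, induced with 0.3% L-arabinose, DNA abundance read by NGS, three biological replicates, DESeq2 with apeglm shrinkage.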

With RRIRHRPPRLPRPRPRPHQRPRP, the “shrunken log2 fold change” value was determined as 0.0129.
Then RRIRYRPPRLPRPRPRPELGPRP, with -0.00146; and RRIRGRPPRLPRPRPRPAWWPRP, with 1.39; and RRIRYRPPRLPRPRPRPHETPRP, with -0.0345.
With RRIRLRPPRLPRPRPRPPMEPRP, the “shrunken log2 fold change” value is 0.347.
The same measure for RRIRVRPPRLPRPRPRPVPNPRP: -0.175.
The same measure for RRIRCRPPRLPRPRPRPFDLPRP: -0.0696; for RRIRRRPPRLPRPRPRPYSHPRP: -0.528; for RRIRIRPPRLPRPRPRPKYHPRP: -0.532.
The same measure for RRIRGRPPRLPRPRPRPDEKPRP: 0.233.
RRIRHRPPRLPRPRPRPRHMPRP: the “shrunken log2 fold change” value was -0.0251.
As for RRIRFRPPRLPRPRPRPGIFPRP, the “shrunken log2 fold change” value is -0.218.
The same measure for RRIRCRPPRLPRPRPRPLYDPRP: -0.312.
Then RRIRQRPPRLPRPRPRPKHEPRP, with 0.164; and RRIRVRPPRLPRPRPRPFNFPRP, with -1.01.
For the sequence RRIRYRPPRLPRPRPRPSDIPRP, the “shrunken log2 fold change” value is -0.0657.
The same measure for RRIRQRPPRLPRPRPRPSWNPRP: -0.238; for RRIRLRPPRLPRPRPRPWIHPRP: -0.487; for RRIRYRPPRLPRPRPRPNCVPRP: -0.0116.
The same measure for RRIRSRPPRLPRPRPRPVFQPRP: -0.302; for RRIRHRPPRLPRPRPRPRLLPRP: -0.113.
Consider RRIRRRPPRLPRPRPRPGNYPRP, for which the “shrunken log2 fold change” value is -0.0441.
Regarding RRIRNRPPRLPRPRPRPVNVPRP, the “shrunken log2 fold change” value is -0.304.
Then RRIRARPPRLPRPRPRPCKWPRP, with 0.146; and RRIRSRPPRLPRPRPRPNMFPRP, with -0.289; and RRIRWRPPRLPRPRPRPGDYPRP, with 0.0468.
For RRIRDRPPRLPRPRPRPRFKPRP, the “shrunken log2 fold change” value was -0.0405.
The same measure for RRIRERPPRLPRPRPRPQYHPRP: -0.172.
Consider RRIRHRPPRLPRPRPRPSINPRP, for which the “shrunken log2 fold change” value was -0.605.
Take RRIRLRPPRLPRPRPRPQMYPRP: the “shrunken log2 fold change” value is -0.115.
Take RRIRFRPPRLPRPRPRPCCQPRP: the “shrunken log2 fold change” value is -0.439.
Then RRIRTRPPRLPRPRPRPQTCPRP, with -0.176; and RRIRYRPPRLPRPRPRPHVFPRP, with -0.0822.
On to RRIRHRPPRLPRPRPRPETPPRP, for which the “shrunken log2 fold change” value was 0.561.
The same measure for RRIRSRPPRLPRPRPRPSAMPRP: 0.292.
Then RRIRQRPPRLPRPRPRPCTIPRP, with -0.00957; and RRIRGRPPRLPRPRPRPCDQPRP, with -0.0239.
The same measure for RRIRGRPPRLPRPRPRPLQSPRP: 0.746.
In the case of RRIRERPPRLPRPRPRPRCDPRP, the “shrunken log2 fold change” value was -0.044.
Take RRIRDRPPRLPRPRPRPFWEPRP: the “shrunken log2 fold change” value came out at 0.272.
Then RRIRPRPPRLPRPRPRPDNTPRP, with -0.373; and RRIRDRPPRLPRPRPRPRDVPRP, with 0.128.
The same measure for RRIRVRPPRLPRPRPRPHGDPRP: 0.00703; for RRIRNRPPRLPRPRPRPTYGPRP: -0.0506; for RRIRRRPPRLPRPRPRPWDTPRP: -0.139.
Regarding RRIRYRPPRLPRPRPRPRIFPRP, the “shrunken log2 fold change” value was -0.603.
Then RRIRQRPPRLPRPRPRPVGDPRP, with 0.203.
For the sequence RRIRDRPPRLPRPRPRPPDDPRP, the “shrunken log2 fold change” value worked out at 0.535.
As for RRIRCRPPRLPRPRPRPIYEPRP, the “shrunken log2 fold change” value is -0.576.
With RRIRIRPPRLPRPRPRPMDQPRP, the “shrunken log2 fold change” value stood at 0.0178.
On to RRIRNRPPRLPRPRPRPPDLPRP, for which the “shrunken log2 fold change” value was found to be 0.101.
Then RRIRRRPPRLPRPRPRPMHGPRP, with 0.144.
Then RRIRFRPPRLPRPRPRPRMEPRP, with -0.00899.
The same measure for RRIRGRPPRLPRPRPRPIMSPRP: 0.0881; for RRIRRRPPRLPRPRPRPSNVPRP: 0.27.
With RRIRHRPPRLPRPRPRPRVMPRP, the “shrunken log2 fold change” value was 0.0966.
The same measure for RRIRTRPPRLPRPRPRPDNCPRP: 0.00765; for RRIRTRPPRLPRPRPRPCFCPRP: -0.259; for RRIRYRPPRLPRPRPRPIYPPRP: -0.559.
With RRIRYRPPRLPRPRPRPLPNPRP, the “shrunken log2 fold change” value was -0.296.
As for RRIRERPPRLPRPRPRPWGDPRP, the “shrunken log2 fold change” value came to 0.108.
The same measure for RRIRWRPPRLPRPRPRPLQQPRP: 0.115; for RRIRERPPRLPRPRPRPTYCPRP: 0.0353; for RRIRWRPPRLPRPRPRPHMKPRP: -0.204.
Then RRIRERPPRLPRPRPRPSICPRP, with -0.151; and RRIRNRPPRLPRPRPRPNPCPRP, with -0.1; and RRIRIRPPRLPRPRPRPLNVPRP, with -1.23.
The same measure for RRIRARPPRLPRPRPRPWDWPRP: 0.991; for RRIRERPPRLPRPRPRPMYYPRP: -0.241.
Turning to RRIRERPPRLPRPRPRPELIPRP, the “shrunken log2 fold change” value came out at 0.0254.
The same measure for RRIRLRPPRLPRPRPRPTPGPRP: 0.557.
In the case of RRIRKRPPRLPRPRPRPQDDPRP, the “shrunken log2 fold change” value is 0.00685.
With RRIRHRPPRLPRPRPRPECAPRP, the “shrunken log2 fold change” value amounted to 0.249.
As for RRIRFRPPRLPRPRPRPAILPRP, the “shrunken log2 fold change” value worked out at 0.0816.
As for RRIRGRPPRLPRPRPRPCLGPRP, the “shrunken log2 fold change” value was 0.0741.
In the case of RRIRFRPPRLPRPRPRPWEQPRP, the “shrunken log2 fold change” value was -0.00193.
Then RRIRWRPPRLPRPRPRPKEAPRP, with 0.111; and RRIRMRPPRLPRPRPRPHMIPRP, with -0.159; and RRIRERPPRLPRPRPRPHQYPRP, with -0.00989.
Then RRIRYRPPRLPRPRPRPESWPRP, with -0.0403; and RRIRHRPPRLPRPRPRPHNRPRP, with -0.0976; and RRIRCRPPRLPRPRPRPLNPPRP, with -0.185.
Then RRIRCRPPRLPRPRPRPSMQPRP, with -0.328; and RRIRHRPPRLPRPRPRPNTWPRP, with -0.0528.
In the case of RRIRPRPPRLPRPRPRPFHPPRP, the “shrunken log2 fold change” value is -0.255.
Consider RRIRERPPRLPRPRPRPVNQPRP, for which the “shrunken log2 fold change” value was -0.123.
RRIRHRPPRLPRPRPRPPFNPRP: the “shrunken log2 fold change” value was -0.256.
The same measure for RRIRMRPPRLPRPRPRPPQIPRP: 0.468; for RRIRIRPPRLPRPRPRPRIRPRP: -0.204; for RRIRRRPPRLPRPRPRPWWWPRP: 0.184.
On to RRIRDRPPRLPRPRPRPANFPRP, for which the “shrunken log2 fold change” value was 0.0245.
In the case of RRIRSRPPRLPRPRPRPPHDPRP, the “shrunken log2 fold change” value was 0.277.
Then RRIRWRPPRLPRPRPRPQGIPRP, with 0.102; and RRIRHRPPRLPRPRPRPLCHPRP, with -0.44.
On to RRIRLRPPRLPRPRPRPQMGPRP, for which the “shrunken log2 fold change” value was -0.0175.
In the case of RRIRLRPPRLPRPRPRPNIFPRP, the “shrunken log2 fold change” value was determined as 0.104.
The same measure for RRIRDRPPRLPRPRPRPYMVPRP: 0.0212; for RRIRNRPPRLPRPRPRPKPEPRP: 0.0739.
Then RRIRTRPPRLPRPRPRPLQMPRP, with 0.2; and RRIRTRPPRLPRPRPRPEPRPRP, with 0.482.
The same measure for RRIRERPPRLPRPRPRPNMTPRP: -0.276; for RRIRKRPPRLPRPRPRPKDDPRP: 0.0898.
As for RRIRNRPPRLPRPRPRPPCVPRP, the “shrunken log2 fold change” value amounted to 0.0341.
On to RRIRPRPPRLPRPRPRPCMKPRP, for which the “shrunken log2 fold change” value is -0.0472.
For RRIRNRPPRLPRPRPRPCFMPRP, the “shrunken log2 fold change” value was -0.742.
The same measure for RRIRLRPPRLPRPRPRPYNIPRP: -1.31; for RRIRSRPPRLPRPRPRPAEEPRP: 0.164.
As to RRIRRRPPRLPRPRPRPPYNPRP, the “shrunken log2 fold change” value was -0.019.
The same measure for RRIRKRPPRLPRPRPRPKRGPRP: 0.781.
Take RRIRKRPPRLPRPRPRPFAVPRP: the “shrunken log2 fold change” value was -0.14.
Regarding RRIRCRPPRLPRPRPRPKYNPRP, the “shrunken log2 fold change” value is -0.696.
As for RRIRMRPPRLPRPRPRPNYMPRP, the “shrunken log2 fold change” value was 1.06.
In the case of RRIRNRPPRLPRPRPRPYRGPRP, the “shrunken log2 fold change” value is -0.0134.
Then RRIRVRPPRLPRPRPRPWLRPRP, with -0.171; and RRIRSRPPRLPRPRPRPIMEPRP, with -0.182.
Take RRIRCRPPRLPRPRPRPRMSPRP: the “shrunken log2 fold change” value was determined as 0.041.
The same measure for RRIRMRPPRLPRPRPRPWSAPRP: 0.149; for RRIRKRPPRLPRPRPRPQTVPRP: 0.0918; for RRIRARPPRLPRPRPRPGNSPRP: -0.108.
As for RRIRFRPPRLPRPRPRPHPDPRP, the “shrunken log2 fold change” value was -0.262.
RRIRDRPPRLPRPRPRPGGDPRP: the “shrunken log2 fold change” value came out at 0.908.
Then RRIRVRPPRLPRPRPRPYHQPRP, with 0.00427; and RRIRFRPPRLPRPRPRPANQPRP, with -0.165; and RRIRMRPPRLPRPRPRPLHCPRP, with 0.254.
Then RRIRERPPRLPRPRPRPNALPRP, with -0.247.
